Test results reported in IntAct's records for PubMed 23435380.

B1: Homeobox protein SIX1 (Homo sapiens), Q15475 (parent)
chain: MSMLPSFGFTQEQVACVCEVLQQGGNLERLGRFLWSLPACDHLHKNESVLKAKAVVAFHRGNFRELYKILESHQFSPHNHPKLQQLWLKAHYVEAEKLRGRPLGAVGKYRVRRKFPLPRTIWDGEETSYCFKEKSRGVLREWYAHNPYPSPREKRELAEATGLTTTQVSNWFKNRRQRDRAAEAKERENTENNNSSSNKQNQLSPLEGGKPLMSSSEEEFSPPQSPDQNSVLLLQGNMGHARSSNYSLPGLTASQPSHGLQTHQHQLQDSLLGPLTSSLVDLGS
partner: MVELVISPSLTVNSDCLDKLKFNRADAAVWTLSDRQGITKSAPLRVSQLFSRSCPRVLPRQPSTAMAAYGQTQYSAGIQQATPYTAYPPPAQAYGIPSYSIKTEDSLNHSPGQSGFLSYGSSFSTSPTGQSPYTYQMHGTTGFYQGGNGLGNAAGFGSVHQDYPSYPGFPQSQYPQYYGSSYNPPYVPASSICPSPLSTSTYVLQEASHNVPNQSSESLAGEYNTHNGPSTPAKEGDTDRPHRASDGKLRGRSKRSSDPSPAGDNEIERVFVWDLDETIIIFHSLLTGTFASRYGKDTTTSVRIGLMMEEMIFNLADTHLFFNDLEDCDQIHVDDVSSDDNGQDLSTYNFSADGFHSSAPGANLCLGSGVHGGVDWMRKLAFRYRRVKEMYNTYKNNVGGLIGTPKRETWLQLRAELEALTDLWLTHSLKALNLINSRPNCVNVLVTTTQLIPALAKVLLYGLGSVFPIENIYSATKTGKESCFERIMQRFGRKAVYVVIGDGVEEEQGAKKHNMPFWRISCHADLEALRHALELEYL
B2: Protein phosphatase EYA2 (Homo sapiens), O00167-1 (parent)
chain: B1 partner
partner: B1 chain

Variants of: B1
Conditions: with EYA2, O00167-1

Which “effect of a mutation on the interaction” value does the source give for MSMLPSFGFTQEQVARVCEVLQQGGNLERLGRFLWSLPACDHLHKNESVLKAKAVVAFHRGNFRELYKILESHQFSPHNHPKLQQLWLKAHYVEAEKLRGRPLGAVGKYRVRRKFPLPRTIWDGEETSYCFKEKSRGVLREWYAHNPYPSPREKRELAEATGLTTTQVSNWFKNRRQRDRAAEAKERENTENNNSSSNKQNQLSPLEGGKPLMSSSEEEFSPPQSPDQNSVLLLQGNMGHARSSNYSLPGLTASQPSHGLQTHQHQLQDSLLGPLTSSLVDLGS [C16R] here?
Its value is “disrupting interaction strength”.

Variants of: B2
Conditions: with six1_human SIX1, Q15475

For MVELVISPSLTVNSDCLDKLKFNRADAAVWTLSDRQGITKSAPLRVSQLFSRSCPRVLPRQPSTAMAAYGQTQYSAGIQQATPYTAYPPPAQAYGIPSYSIKTEDSLNHSPGQSGFLSYGSSFSTSPTGQSPYTYQMHGTTGFYQGGNGLGNAAGFGSVHQDYPSYPGFPQSQYPQYYGSSYNPPYVPASSICPSPLSTSTYVLQEASHNVPNQSSESLAGEYNTHNGPSTPAKEGDTDRPHRASDGKLRGRSKRSSDPSPAGDNEIERVFVWDLDETIIIFHSLLTGTFASRYGKDTTTSVRIGLMMEEMIFNLADTHLFFNDLEDCDQIHVDDVSSDDNGQDLSTYNFSADGFHSSAPGANLCLGSGVHGGVDWMRKLAFRYRRVKEMYNTYKNNVGGLIGTPKRETWLQLRAELEALTDLWLTHSLKALNLINSRPNCVNVLVTTTQLIPALAKVLLYGLGSVFPIENIYSATKTGKESCFERIMQRFGRKAVYVVIGDGVEEEQGAKKHNMRFWRISCHADLEALRHALELEYL [P516R], which “effect of a mutation on the interaction” value is on record?
The value was “decreasing interaction strength”.

How did the “effect of a mutation on the interaction” value turn out when MVELVISPSLTVNSDCLDKLKFNRADAAVWTLSDRQGITKSAPLRVSQLFSRSCPRVLPRQPSTAMAAYGQTQYSAGIQQATPYTAYPPPAQAYGIPSYSIKTEDSLNHSPGQSGFLSYGSSFSTSPTGQSPYTYQMHGTTGFYQGGNGLGNAAGFGSVHQDYPSYPGFPQSQYPQYYGSSYNPPYVPASSICPSPLSTSTYVLQEASHNVPNQSSESLAGEYNTHNGPSTPAKEGDTDRPHRASDGKLRGRSKRSSDPSPAGDNEIERVFVWDLDETIIIFHSLLTGTFASRYGKDTTTSVRIGLMMEEMIFNLADTHLFFNDLEDCDQIHVDDVSSDDNGQDLSTYNFSADGFHSSAPGANLCLGSGVHGGVDWMRKLAFRYRRVKEMYNTYKNNVGGLIGTPKRETWLQLRAELEALTDLWLTHSLKALNLINSRPNCVNVLVTTTQLIPALAKVLLYGLGSVFPIENIYSATKTGKESCFERIMQRFGRKAVYVVIGDGVEEEQGAKKHNMPFWRISCHADLEALRHRLELEYL [A532R] was run?
Its value is “disrupting interaction strength”.
